From patent US20220119517A1 (NANJING SANHOME PHARMACEUTICAL, published 2022)
Like-named read-outs stand apart in the source and are kept apart here.

Assays:
[1] = molecular target: T1, human Claudin18.2 (CLDN18.2), full length, on cells (human); assay: FACS on NUGC4 cells
T1 construct: also called CLDN18.2-FL; HEK293-CLDN18.2 cells
Protocol: (§1) The effect of the Fc-mutated humanized antibody on the binding to the target CLDN18.2 was identified by FACS. NUGC4 cells were digested using the gastric cancer cell digestion solution at 37° C. for 15 minutes; terminated by the complete culture medium, centrifuged at 1000 rpm for 5 minutes, the supernatant was discarded; the cells were resuspended with 2% fetal bovine serum-PBS diluent, the cells were adjusted to 1×10⁶ cells/ml, 100 μl of cell suspension was added to each well of the 96-well U-shaped-bottom plate; the antibody was diluted with 2% fetal bovine serum-PBS to final concentrations of 5 μg/ml, 1 μg/ml, 0.2 μg/ml, 0.04 μg/ml and 0.008 μg/ml, mixed with the cells in equal volume, incubated at 4° C. for 1 hour; centrifuged at 1000 rpm for 5 minutes, the supernatant was discarded; 200 μl of Cell Stain Buffer (Biolegend) was added to each well to wash twice, centrifuged at 1000 rpm for 5 minutes at each time and the supernatant was discarded; 100 μl of PE-anti human Fc antibody (Biolegend) was added, incubated at 4° C. for 1 hour; washed twice using Cell Stain Buffer (Biolegend), centrifuged at 1000 rpm for 5 minutes at each time and the supernatant was discarded. 300 μl of Cell Stain Buffer was added to resuspend the cells, detected with BD FACS Jazz flow analyzer.

[2] = molecular target: T1, human Claudin18.2 (CLDN18.2), full …; assay: cell-based or functional assay
[3] = molecular target: T1, human Claudin18.2 (CLDN18.2), full …; assay: FACS on NUGC4 cells, positive rate
Protocol: as §1

[4] = molecular target: T1, human Claudin18.2 (CLDN18.2), full …; assay: cell-based or functional assay; remark: listed apart in the source
[5] = molecular target: T1, human Claudin18.2 (CLDN18.2), full …; assay: cell-based or functional assay; remark: listed apart in the source
[6] = molecular target: T2, antigen protein Claudin18.2-His (human, UniProt P56856-2 1-261, limits assumed); assay: BLI (Fortebio Octet RED96), antibody on AHC sensor, Claudin18.2-His in solution, 37 °C
T2 construct: also called CLDN18.2 protein
Protocol: Next, antibodies were immobilized by the AHC sensor, and then combined with different concentrations of antigens, and determination of the affinity was performed according to the manual of Octet RED96.

[7] = molecular target: T2, antigen protein Claudin18.2-His; assay: BLI (Fortebio Octet RED96), antibody on AHC sensor, CLDN18.2 protein in solution, 37 °C
Protocol: Another method is to verify the affinity of the humanized antibody above at the protein level. The antibody was immobilized by the AHC sensor, and combined with different concentrations of antigens, and affinity determination was performed according to the manual of Octet RED96.

[8] = molecular target: T1, human Claudin18.2 (CLDN18.2), full …; assay: cellular ELISA on fixed HEK293-CLDN18.2 cells
Protocol: HEK293-CLDN18.1 and HEK293-CLDN18.2 cells were resuscitated two weeks in advance, cultured with DMEM complete culture medium containing 10% fetal bovine serum at 37° C., 5% CO₂. When the cells grew to 80%-90% confluency, they were digested with 0.5 mM EDTA-PBS (Sigma) at room temperature, centrifuged at 1000 rpm for 5 minutes, the supernatant was discarded. Cells were resuspended in DMEM complete culture medium, the cell concentration was adjusted to 6×10⁵ cells/ml. Cells were plated on 96-well cell plates (Corning) pre-coated with polylysine at 2.5 μg/well, 100 μl per well, incubated at 37° C., 5% CO₂ for 24 hours, making cells evenly and completely plated on the bottom of the well. The supernatant was aspirated, and the cells were fixed with 4% paraformaldehyde at room temperature for 20 minutes, washed 3 times with 200 μl PBS, 2 minutes at each time. The well plates were blocked with 200 μl of 3% BSA-PBS at 37° C. for 1 hour. Each chimeric antibody was diluted with 3% BSA-PBS to a concentration of 6 μg/ml, and diluted in a 6-fold gradient to a total of 7 concentrations. At the same time, IMAB362-similar-hG1 diluted in the same concentration gradient as the positive control, and human IgG1, kappa isotype control antibody (hereinafter referred to as Isotype, provided by CrownBio (Taicang) Co., Ltd.) as the negative control were added to HEK293-CLDN18.2 and HEK293-CLDN18.1 cell plates, respectively. The cells were incubated at 37° C. for 1 hour, washed 5 times with PBS. Incubation with HRP-anti human IgG (Jackson) diluted 1:10000 in blocking solution was performed at 37° C. for 1 hour followed by washing 5 times with PBS. 100 μl of TMB one-component color developing solution was added, protected from light at room temperature for 5-10 minutes, terminated with 50 μl of 2M sulfuric acid, OD450 was read on the microplate reader. Data processing: the original data was put into GraphPad 5.0 software for plotting and calculation.

[9] = molecular target: T1, human Claudin18.2 (CLDN18.2), full …; assay: FACS on NUGC4 cells; remark: listed apart in the source
Excerpt: (§2) Human gastric cancer cells NUGC4 and stably transfected cells CHO-K1-CLDN18.1 (prepared in Example 5) were used respectively, to verify the specificity and affinity of the anti-CLDN18.2 antibodies above at the cellular level by FAGS technology. After antibody affinity maturation and screening in vitro, each antibody can bind to the CLDN18.2 target on NUGC4 cells, but not to CHO-K1-CLDN18.1 cells, as compared with the original 3CHI antibody.

[10] = molecular target: T1, human Claudin18.2 (CLDN18.2), full …; assay: FACS on CHO-K1-CLDN18.2 cells, Graphpad fit
Protocol: (§3) CHO-K1-CLDN18.2 cells and CHO-K1-CLDN18.1 cells (prepared in Example 5) were digested with gastric cancer cell digestion solution at 37° C. for 15 minutes, respectively; terminated with complete culture medium, centrifuged at 1000 rpm for 5 minutes, the supernatant was discarded; the cells were resuspended with 2% fetal bovine serum-PBS diluent, the cells were adjusted to 1×10⁶ cells/ml, 100 μl of cell suspension was added to each well of the 96-well U-shaped-bottom plate; 2% fetal bovine serum-PBS was used to dilute the humanized antibody and the control antibody to final concentrations of 10 μg/ml, 2 μg/ml, 0.4 μg/ml, 0.08 μg/ml and 0.016 μg/ml, respectively, mixed well with the cells in equal volume, incubated at 4° C. for 1 hour; centrifuged at 1000 rpm for 5 minutes, the supernatant was discarded; 200 μl Cell Stain Buffer (Biolegend) was added to each well to wash twice, centrifuged at 1000 rpm for 5 minutes at each time and the supernatant was discarded; 100 μl of PE-anti human Fc antibody (Biolegend) was added, incubated at 4° C. for 1 hour; washed with Cell Stain Buffer (Biolegend) twice, centrifuged at 1000 rpm for 5 minutes at each time and the supernatant was discarded. 300 μl Cell Stain Buffer was added to resuspend the cells, and detected by BD FACS Jazz flow cytometry analyzer. […]

[11] = molecular target: T3, human Claudin18.1 (CLDN18.1), full length, on cells (human, UniProt P56856 1-261); assay: FACS on CHO-K1-CLDN18.1 cells
T3 construct: HEK293-CLDN18.1 cells carry a fusion with green fluorescent protein (ZsGreen); CHO-K1-CLDN18.1 cells carry pcDNA3.1-CLDN18.1; The cell line is named under assay; also called CLDN18.1-FL; HEK293-CLDN18.1 cells
Excerpt: as §2

[12] = molecular target: T1, human Claudin18.2 (CLDN18.2), full …; assay: cell-based or functional assay; remark: listed apart in the source
[13] = molecular target: T3, human Claudin18.1 (CLDN18.1), full …; assay: FACS on CHO-K1-CLDN18.1 cells, PE-anti human Fc, MFI
Protocol: CHO-K1-CLDN18.2 cells and CHO-K1-CLDN18.1 cells (prepared in Example 5) were digested with gastric cancer cell digestion solution at 37° C. for 15 minutes, respectively; terminated with complete culture medium, centrifuged at 1000 rpm for 5 minutes, the supernatant was discarded; the cells were resuspended with 2% fetal bovine serum-PBS diluent, the cells were adjusted to 1×10⁶ cells/ml, 100 μl of cell suspension was added to each well of the 96-well U-shaped-bottom plate; 2% fetal bovine serum-PBS was used to dilute the humanized antibody and the control antibody to final concentrations of 10 μg/ml, 2 μg/ml, 0.4 μg/ml, 0.08 μg/ml and 0.016 μg/ml, respectively, mixed well with the cells in equal volume, incubated at 4° C. for 1 hour; centrifuged at 1000 rpm for 5 minutes, the supernatant was discarded; 200 μl Cell Stain Buffer (Biolegend) was added to each well to wash twice, centrifuged at 1000 rpm for 5 minutes at each time and the supernatant was discarded; 100 μl of PE-anti human Fc antibody (Biolegend) was added, incubated at 4° C. for 1 hour; washed with Cell Stain Buffer (Biolegend) twice, centrifuged at 1000 rpm for 5 minutes at each time and the supernatant was discarded. 300 μl Cell Stain Buffer was added to resuspend the cells, and detected by BD FACS Jazz flow cytometry analyzer.

[14] = molecular target: T1, human Claudin18.2 (CLDN18.2), full …; assay: FACS on CHO-K1-CLDN18.2 cells, relative Kd from Graphpad fit
Protocol: as §3

B1: Hu330-1-5M (antibody, human IgG1, kappa)
heavy: EVQLVESGGGLVQPGGSLRLSCAASGFGFSDYGMAWVRQAPGKGLEWVSFISNSAYSIYYADTVTGRFTISRDNAKNSLYLQMNSLRAEDTAVYYCARLGRGNSFAYWGQGTLVTVSSASTKGPSVFPLAPSSKSTSGGTAALGCLVKDYFPEPVTVSWNSGALTSGVHTFPAVLQSSGLYSLSSVVTVPSSSLGTQTYICNVNHKPSNTKVDKKVEPKSCDKTHTCPPCPAPELLGGPSVFLLPPKPKDTLMISRTPEVTCVVVDVSHEDPEVKFNWYVDGVEVHNAKTKPPEEQYNSTLRVVSILTVLHQDWLNGKEYKCKVSNKALPAPIEKTISKAKGQPREPQVYTLPPSRDELTKNQVSLTCLVKGFYPSDIAVEWESNGQPENNYKTTPLVLDSDGSFFLYSKLTVDKSRWQQGNVFSCSVMHEALHNHYTQKSLSLSPGK
light: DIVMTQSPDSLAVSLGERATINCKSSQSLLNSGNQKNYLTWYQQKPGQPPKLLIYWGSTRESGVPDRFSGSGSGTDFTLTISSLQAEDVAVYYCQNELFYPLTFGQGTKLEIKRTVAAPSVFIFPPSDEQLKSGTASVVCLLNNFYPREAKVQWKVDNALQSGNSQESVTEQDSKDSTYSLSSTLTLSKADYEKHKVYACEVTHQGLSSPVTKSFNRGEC
notes: also called Fc mutant of the humanized antibody; Fc-mutated humanized antibody
B1 was tested. Which “fold increase of binding activity over IMAB362-similar-hG1” value [1] did it give?
The value was 15 fold.

What about the “ADCC cytotoxicity by LDH method, PBMC effectors, EC50” value [2] of the same binder?
The value was 0.31 nM.

And the EC50 [3]?
Its EC50 is 0.76 nM.

And the “Top (%)” value [3]?
Its value is 92.4%.

What about the “ADCC activity by luciferase labeling, EC50” value [4] of the same binder?
Its value is 0.17 nM.

What about the “ADCC activity by luciferase labeling, Top” value [4] of the same binder?
The value was 100000.

B2: IMAB362-similar-hG1 (antibody, human IgG1, kappa)
heavy: not shown
light: DIVMTQSPSSLTVTAGEKVTMSCKSSQSLLNSGNQKNYLTWYQQKPGQPPKLLIYWASTRESGVPDRFTGSGSGTDFTLTISSVQAEDLAVYYCQNDYSYPFTFGSGTKLEIKRTVAAPSVFIFPPSDEQLKSGTASVVCLLNNFYPREAKVQWKVDNALQSGNSQESVTEQDSKDSTYSLSSTLTLSKADYEKHKVYACEVTHQGLSSPVTKSFNRGEC
notes: Human IgG1/kappa format; also called positive control antibody; positive antibody
With B2 as the binder, how does the “in-vitro ADCC activity, Jurkat-CD16A/NF luciferase reporter, EC50” value [5] read?
Its value is 0.72 nM.

What about the “in-vitro ADCC activity, Jurkat-CD16A/NF luciferase reporter, Top” value [5] of the same binder?
Its value is 216000.

And the Kd [6]?
The Kd was 7.14 nM.

And the koff [6]?
Its koff is 0.000399 s⁻¹.

What about the kon [6] of the same binder?
Its kon is 55900 M⁻¹ s⁻¹.

And the Kd [7]?
Its Kd is 9.44 nM.

What about the koff [7] of the same binder?
The koff was 0.00222 s⁻¹.

And the kon [7]?
Its kon is 235000 M⁻¹ s⁻¹.

And the “ADCC cytotoxicity by LDH method, PBMC effectors, EC50” value [2]?
The value was 2.47 nM.

And the EC50 [8]?
Its EC50 is 0.09 nM.

What about the “MFI (CLDN18.2)” value [9] of the same binder?
Its value is 2180 MFI.

And the EC50 [3]?
The EC50 was 9.78 nM.

What about the “Top (%)” value [3] of the same binder?
Its value is 58.8%.

And the “Bmax (MFI)” value [10]?
Its value is 8220 MFI.

And the “MFI (CLDN18.1)” value [11]?
Its value is 59 MFI.

What about the “ADCC activity by luciferase labeling, EC50” value [12] of the same binder?
Its value is 0.69 nM.

What about the “ADCC activity by luciferase labeling, Top” value [12] of the same binder?
The value was 63600.

Does B2 bind [13]?
Result: no binding

And the Kd [14]?
The Kd was 28.7 nM.

And the “ADCC activity by luciferase labeling, EC50” value [4]?
The value was 1.49 nM.

What about the “ADCC activity by luciferase labeling, Top” value [4] of the same binder?
Its value is 89600.
